Measurements reported in patent US20220064281A1 (Ablynx, published 2022).

Experiments:
[1] = molecular target: T1, human TNFα (human, UniProt P01375 77-233); assay: cell-based or functional assay
[2] = molecular target: T2, cyno TNFα (cynomolgus monkey, UniProt P79337 77-233); assay: cell-based or functional assay
[3] = molecular target: cyno IL-23 (cynomolgus monkey); assay: cell-based or functional assay
[4] = molecular target: T3, human serum albumin (human, UniProt P02768 25-609); assay: Gyrolab in-solution affinity, 2 h incubation
T3 construct: also called HSA; SA (human)
T3 sequence (P02768 25-609 limits assumed): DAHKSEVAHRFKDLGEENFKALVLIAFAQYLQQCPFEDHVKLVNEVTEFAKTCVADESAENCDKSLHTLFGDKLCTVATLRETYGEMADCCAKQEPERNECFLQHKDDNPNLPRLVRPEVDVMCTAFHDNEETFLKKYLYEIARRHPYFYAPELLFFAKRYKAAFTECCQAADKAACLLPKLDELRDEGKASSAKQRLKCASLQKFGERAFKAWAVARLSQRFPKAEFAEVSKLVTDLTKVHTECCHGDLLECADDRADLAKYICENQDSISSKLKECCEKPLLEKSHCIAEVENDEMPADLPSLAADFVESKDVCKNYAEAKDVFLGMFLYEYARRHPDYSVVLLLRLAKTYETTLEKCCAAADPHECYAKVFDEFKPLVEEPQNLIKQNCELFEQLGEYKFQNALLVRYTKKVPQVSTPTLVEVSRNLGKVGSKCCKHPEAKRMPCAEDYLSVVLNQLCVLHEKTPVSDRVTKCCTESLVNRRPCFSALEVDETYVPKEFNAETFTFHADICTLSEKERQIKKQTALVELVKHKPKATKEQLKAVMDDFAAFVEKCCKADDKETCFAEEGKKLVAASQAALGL
Source text: (§1) Biotinylated human TNFα/IL-23/serum albumin was captured in the microstructures of a Gyrolab Bioaffy 1000 CD, which contains columns of beads and is used as a molecular probe to capture free F027500069 from the equilibrated solution. The mixture of TNFα/IL-23/serum albumin and F027500069 (containing free TNFα/IL-23/serum albumin, free F027500069 and TNFα/IL-23/serum albumin—F027500069 complexes) was allowed to flow through the beads, and a small percentage of free F027500069 was captured, which is proportional to the free ISVD concentration. A fluorescently labelled anti-VHH antibody was then injected to label any captured F027500069 and after rinsing away excess of fluorescent probe, the change in fluorescence was determined. Fitting of the dilution series was done using Gyrolab Analysis software, where KD⁻ and receptor-controlled curves were analyzed to determine the KD value.

[5] = molecular target: T4, cyno serum albumin (cynomolgus monkey, UniProt A2V9Z4 25-608); assay: Gyrolab in-solution affinity, 2 h incubation
T4 construct: also called SA (cynomolgus monkey)
T4 sequence (A2V9Z4 25-608 limits assumed): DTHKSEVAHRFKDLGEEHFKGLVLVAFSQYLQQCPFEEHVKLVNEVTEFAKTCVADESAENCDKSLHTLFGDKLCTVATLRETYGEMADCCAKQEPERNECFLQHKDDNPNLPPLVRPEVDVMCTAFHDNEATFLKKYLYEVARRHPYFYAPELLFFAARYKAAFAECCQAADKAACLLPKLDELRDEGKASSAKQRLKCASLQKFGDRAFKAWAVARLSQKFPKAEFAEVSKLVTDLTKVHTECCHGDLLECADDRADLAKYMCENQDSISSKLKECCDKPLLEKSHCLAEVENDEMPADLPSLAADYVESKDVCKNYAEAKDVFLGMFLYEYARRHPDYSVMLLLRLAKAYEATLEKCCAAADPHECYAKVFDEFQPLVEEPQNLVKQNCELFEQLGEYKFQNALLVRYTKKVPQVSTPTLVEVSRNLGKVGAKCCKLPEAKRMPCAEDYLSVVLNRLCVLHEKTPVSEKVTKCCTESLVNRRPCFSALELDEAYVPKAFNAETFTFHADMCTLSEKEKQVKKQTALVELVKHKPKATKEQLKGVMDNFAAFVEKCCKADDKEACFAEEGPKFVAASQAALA
Source text: as §1

[6] = molecular target: T1, human TNFα; assay: Gyrolab in-solution affinity, 24 h incubation
Source text: as §1

[7] = molecular target: T2, cyno TNFα; assay: Gyrolab in-solution affinity, 24 h incubation
Source text: as §1

[8] = molecular target: T5, cyno IL-23 (cynomolgus monkey); assay: Gyrolab in-solution affinity, 24 h incubation
T5 construct: also called recombinant IL-23 from cynomolgus monkey
Source text: as §1

[9] = molecular target: T1, human TNFα; assay: Gyrolab in-solution affinity, 48 h incubation
Source text: as §1

[10] = molecular target: T2, cyno TNFα; assay: Gyrolab in-solution affinity, 48 h incubation
Source text: as §1

[11] = molecular target: T5, cyno IL-23; assay: Gyrolab in-solution affinity, 48 h incubation
Source text: as §1

[12] = molecular target: T6, human FASL (human, UniProt P48023 134-281, limits assumed); assay: SPR, target immobilized by amine coupling, F027500069 injected
T6 construct: also called huFASL
T6 sequence (looked up): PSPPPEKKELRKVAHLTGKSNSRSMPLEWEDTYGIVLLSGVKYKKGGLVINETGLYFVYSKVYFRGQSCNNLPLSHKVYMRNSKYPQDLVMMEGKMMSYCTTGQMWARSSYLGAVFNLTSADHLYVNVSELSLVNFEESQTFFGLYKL
Experimental: (§2) Absence of binding to TNFα and IL-23 related human cytokines was assessed via SPR. hIL-12 was tested, as it shares the p40 subunit with IL-23. TNF superfamily members human FASL, TNFβ, LIGHT, TL-1A, RANKL were tested as related cytokines for TNFα.
(§3) Next, 1 μM of F027500069 was injected for 2 minutes and allowed to dissociate for 900s at a flow rate of 45 μL/min. As running buffer 1×HBS-EP+ pH7.4 was used. As positive controls, 0.2 μM α-huIL-12 Ab and 0.5 μM α-huFASL Ab, 0.5 μM α-huTNFβ Ab, 0.5 μM α-huLIGHT Ab, 0.5 μM α-huTL-1A Ab and 0.5 μM α-huRANKL VHH were injected. Interaction between F027500069 and the positive controls with the immobilized targets was measured by detection of increases in […] which occurs as a result of mass changes on the chip upon binding.

[13] = molecular target: T7, human TNFβ (human, UniProt P01374 35-205); assay: as above
T7 construct: also called huTNFβ
T7 sequence (looked up): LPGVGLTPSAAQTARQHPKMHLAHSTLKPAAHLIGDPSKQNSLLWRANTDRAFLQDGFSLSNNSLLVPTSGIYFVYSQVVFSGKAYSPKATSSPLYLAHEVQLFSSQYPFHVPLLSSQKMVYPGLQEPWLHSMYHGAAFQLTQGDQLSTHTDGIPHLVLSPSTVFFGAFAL
Experimental: as §2, §3

[14] = molecular target: T8, human LIGHT (human, UniProt O43557 74-240, limits assumed); assay: as above
T8 construct: also called huLIGHT
T8 sequence (O43557 74-240 limits assumed): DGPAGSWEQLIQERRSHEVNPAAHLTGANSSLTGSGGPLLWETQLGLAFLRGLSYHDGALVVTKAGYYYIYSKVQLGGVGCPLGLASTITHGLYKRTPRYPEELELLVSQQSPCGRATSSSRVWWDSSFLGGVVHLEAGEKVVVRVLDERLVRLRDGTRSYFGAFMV
Experimental: as §2, §3

[15] = molecular target: T9, human TL-1A (human, UniProt O95150 72-251); assay: as above
T9 construct: also called huTL-1A
T9 sequence (looked up): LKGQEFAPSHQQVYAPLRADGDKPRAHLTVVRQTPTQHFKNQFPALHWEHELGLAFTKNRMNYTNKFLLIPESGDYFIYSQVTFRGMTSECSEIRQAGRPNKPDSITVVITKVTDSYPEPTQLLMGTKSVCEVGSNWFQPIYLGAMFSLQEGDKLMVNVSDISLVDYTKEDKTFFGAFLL
Experimental: as §2, §3

[16] = molecular target: T10, human RANKL (human, UniProt O14788 140-317, limits assumed); assay: as above
T10 construct: also called huRANKL
T10 sequence (looked up): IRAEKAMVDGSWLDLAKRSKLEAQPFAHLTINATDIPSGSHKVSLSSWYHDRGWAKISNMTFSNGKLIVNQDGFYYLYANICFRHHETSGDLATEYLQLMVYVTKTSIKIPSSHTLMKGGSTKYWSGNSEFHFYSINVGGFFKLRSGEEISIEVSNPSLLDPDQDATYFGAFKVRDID
Experimental: as §2, §3

[17] = molecular target: T11, human IL-12 (human, UniProt P29459 23-219; P29460 23-328); assay: as above
T11 construct: also called hIL-12
T11 sequence (looked up) 1: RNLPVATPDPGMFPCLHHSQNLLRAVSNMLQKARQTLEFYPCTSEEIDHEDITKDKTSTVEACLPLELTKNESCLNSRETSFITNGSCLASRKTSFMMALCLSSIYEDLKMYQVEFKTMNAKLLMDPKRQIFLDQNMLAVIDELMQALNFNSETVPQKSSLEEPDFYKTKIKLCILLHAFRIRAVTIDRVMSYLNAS
T11 sequence (looked up) 2: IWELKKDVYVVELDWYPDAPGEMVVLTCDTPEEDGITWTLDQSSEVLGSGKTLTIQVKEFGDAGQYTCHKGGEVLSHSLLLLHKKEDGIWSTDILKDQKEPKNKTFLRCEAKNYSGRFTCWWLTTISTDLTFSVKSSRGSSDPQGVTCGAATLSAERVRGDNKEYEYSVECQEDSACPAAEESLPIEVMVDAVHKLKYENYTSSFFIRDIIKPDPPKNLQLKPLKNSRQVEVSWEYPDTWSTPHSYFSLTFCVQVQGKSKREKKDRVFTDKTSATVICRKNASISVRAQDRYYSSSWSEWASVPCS
Experimental: as §2, §3

[18] = molecular target: T12, human membrane TNFα (human, UniProt P01375 1-233); assay: flow cytometry, human membrane TNFα expressing HEK293H cells, fixed cells
T12 construct: whole, on cells; also called membrane expressed TNFα
T12 sequence (P01375 whole entry): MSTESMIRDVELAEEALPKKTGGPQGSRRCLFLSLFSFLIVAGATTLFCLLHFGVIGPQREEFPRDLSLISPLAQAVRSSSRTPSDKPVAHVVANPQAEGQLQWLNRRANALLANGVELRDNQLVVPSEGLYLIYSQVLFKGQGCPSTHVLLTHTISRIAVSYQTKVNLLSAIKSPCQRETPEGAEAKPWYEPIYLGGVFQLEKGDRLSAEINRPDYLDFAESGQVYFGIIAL
Experimental: (§4) Briefly, cells were seeded at a density of 1×10⁴ cells/well and incubated with a dilution series of F027500069 starting from 100 nM up to 0.5 pM, for 1 hour at 4° C. In parallel, cells were fixed with 4% paraformaldehyde and 0.1% Glutaraldehyde in PBS, before seeding (to increase detection of membrane bound TNFα) and incubated with a dilution series of ISVD for 1 hour at 4° C. or for 24 hours at room temperature. Cells were washed 3 times and subsequently incubated with an anti-VHH mAb for 30 min at 4° C., washed again, and incubated for 30 min at 4° C. with a goat anti-mouse PE labelled antibody. Samples were washed and resuspended in FACS Buffer (D-PBS with 10% FBS and 0.05% sodium azide supplemented with 5 nM TOPRO3). Cell suspensions were then analysed on an iQuescreener. EC50 values were calculated using GraphPad Prism.

[19] = molecular target: T12, human membrane TNFα; assay: flow cytometry, human membrane TNFα expressing HEK293H cells, fixed cells, 1 h at 4 °C
Experimental: as §4

[20] = molecular target: T12, human membrane TNFα; assay: flow cytometry, human membrane TNFα expressing HEK293H cells, viable cells, 1 h at 4 °C
Experimental: as §4

[21] = molecular target: T12, human membrane TNFα; assay: flow cytometry, human membrane TNFα expressing HEK293H cells, fixed cells, 24 h at room temperature
Experimental: as §4

[22] = molecular target: T13, OX40L (human, UniProt P23510); assay: SPR (ProteOn XPR36): 100 nM F027500069 captured on immobilized HSA, then 100 nM hOX40L injected for 2 min, alone or mixed with 100 nM IL-23 or TNFα, followed by 600 s dissociation
T13 construct: soluble recombinant protein; also called hOX40L
T13 sequence (ligand chain, looked up): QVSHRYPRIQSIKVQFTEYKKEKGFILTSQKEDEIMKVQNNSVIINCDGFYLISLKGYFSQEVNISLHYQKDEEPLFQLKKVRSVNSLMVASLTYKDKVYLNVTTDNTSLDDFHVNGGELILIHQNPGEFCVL
Experimental: A ProteOn XPR36 instalment was used to determine whether F027500069 can bind simultaneously to hTNFα and hIL-23. To this end HSA was immobilized on a GLC ProteOn Sensor chip via amine coupling. 100 nM of F027500069 was injected for 2 min at 10 μl/min over the HSA surface in order to capture the ISVD via the ALB23002 building block. Subsequently either 100 nM of hIL-23, hTNFα or hOX40L were injected or mixtures of 100 nM IL-23+100 nM TNFα, 100 nM IL-23+100 nM OX40L or 100 nM TNFα+[…], at a flow rate of 10 μl/min for 2 min followed by a subsequent 600 seconds dissociation step. The HSA surfaces were regenerated with a 2-minute injection of HCl (100 mM) at 45 μl/min.

T1 sequence (P01375 77-233 limits assumed): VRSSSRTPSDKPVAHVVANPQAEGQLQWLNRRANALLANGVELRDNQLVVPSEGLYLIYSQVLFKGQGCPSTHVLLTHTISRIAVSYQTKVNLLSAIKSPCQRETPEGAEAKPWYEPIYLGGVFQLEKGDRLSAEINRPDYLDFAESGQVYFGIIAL
T2 sequence (P79337 77-233 limits assumed): as the sequence (P01375 77-233 limits assumed) above, with L37V, R44T, T72N, R138L counted along it

B1: F027500069 (VHH)
chain: DVQLVESGGGVVQPGGSLRLSCTASGFTFSTADMGWFRQAPGKGREFVARISGIDGTTYYDEPVKGRFTISRDNSKNTVYLQMNSLRPEDTALYYCRSPRYADQWSAYDYWGQGTLVTVSSGGGGSGGGSEVQLVESGGGVVQPGGSLRLSCAASGRIFSLPASGNIFNLLTIAWYRQAPGKQRELVATIESGSRTNYADSVKGRFTISRDNSKKTVYLQMNSLRPEDTALYYCQTSGSGSPNFWGQGTLVTVSSGGGGSGGGSEVQLVESGGGVVQPGGSLRLSCAASGFTFRSFGMSWVRQAPGKGPEWVSSISGSGSDTLYADSVKGRFTISRDNSKNTLYLQMNSLRPEDTALYYCTIGGSLSRSSQGTLVTVSSGGGGSGGGSEVQLVESGGGVVQPGGSLRLSCAASGRTLSSYAMGWFRQAPGKEREFVARISQGGTAIYYADSVKGRFTISRDNSKNTVYLQMNSLRPEDTALYYCAKDPSPYYRGSAYLLSGSYDSWGQGTLVKVSSA
notes: produced in Pichia pastoris; also called F02750069; ISVD construct F027500069
With B1 the “NFkB assay IC50 (M); Glo Response HEK293_NFkB-NLucP reporter assay, 25 pM human TNFα” value [1] was 3.88e-11 M, the “NFkB assay IC50 (M); Glo Response HEK293_NFkB-NLucP reporter assay, 70 pM cyno TNFα” value [2] was 1.28e-10 M and the “IL-23 reporter assay IC50 (M); Glo Response HEK293_human IL-23R/IL-12Rb1-Luc2P, 40 pM cyno IL-23” value [3] was 3.23e-10 M. The “Mouse splenocyte assay IC50 (M); IL-23-induced mIL-22 production, 36 pM cyno IL-23” value [3] was 3.07e-11 M, the Kd [4] was 5.9 nM and the Kd [5] was 10.8 nM. For the same binder, the Kd [6] was 0.00323 nM, the Kd [7] was 0.0275 nM and the Kd [8] was 0.0335 nM. It also gave a Kd [9] of 0.00339 nM, a Kd [10] of 0.0186 nM and a Kd [11] of 0.0512 nM. B1: no binding (tested: 1 µM) [12]; no binding (tested: 1 µM) [13]; no binding (tested: 1 µM) [14]. B1: no binding (tested: 1 µM) [15]; no binding (tested: 1 µM) [16]; no binding (tested: 1 µM) [17]. For the same binder, the “fold improvement of the EC50 (24 hours against 1 hour incubation)” value [18] was 6.6 fold, the EC50 [19] was 0.811 nM and the EC50 [20] was 0.693 nM. For the same binder, the EC50 [21] was 0.122 nM and the binding result [22] was “no binding (tested: 100 nM)”.
